According to paper PMC5428781, “Novel insights into the interaction of UBA5 with UFM1 via a UFM1-interacting sequence” (Scientific Reports, 2017):
Ends that are not written are not given here. fluorescein = fluorescein label on the N-terminus

Biological target: T1, ubiquitin-fold modifier 1 (UFM1) (human, UniProt P61960 1-83)
T1 construct: ubiquitin-fold modifier 1 (UFM1), human; the form that ends at Gly 83 (the residues missing in the models are counted up to Gly 83); pET15b, N-terminal His6 followed by a TEV site; purified by the protocol of the UBA5 constructs, which removes the tag; In solution a monomer and a fraction of dimer; also called UFM1 WT; UFM1 alone; source: E. coli, purified (His-Trap, TEV cleavage, second …)
Experiment: fluorescence polarisation; UFM1 at various concentrations with 120 nM N-terminal fluorescein-labeled UIS peptide; 50 mM Hepes pH 7.5, 150 mM NaCl, 5% glycerol, 0.2 mg/ml BSA; room temperature; triplicate; one site specific binding fit
Details: both partners purified

T1 sequence (P61960 1-83): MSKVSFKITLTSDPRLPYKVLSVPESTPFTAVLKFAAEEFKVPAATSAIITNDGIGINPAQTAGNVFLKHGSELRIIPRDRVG

## fluorescein-IIHEDNEWGIELV (peptide, UniProt Q9GZZ9 334-346, looked up, source: synthetic peptide) [fluorescein-labeled UIS peptide (amino acids 334–346 of UBA5)]
  Kd: 8.47 µM
